Values belong to the binder of their own block, whether it stands above or below them. Where no end group is shown, it is not given here. [ ]: non-standard residue; d: D form. pT = C[C@@H](OP(=O)(O)O)[C@H](N)C(=O)O; FAM = fluorescein
Tests used:
cross-linking = target: the molecule itself; assay: cross-linking
FAM‐ERα‐pTV peptide [1] = target: T1, FAM‐ERα‐pTV peptide; assay: fluorescence polarisation
T1 peptide: {FAM}-KYYITGEAEGFPA[pT]V

FAM‐ERα‐pTV peptide [2] = target: T1, FAM‐ERα‐pTV peptide; assay: fluorescence polarisation
FAM‐ERα‐pTV peptide [3] = target: T1, FAM‐ERα‐pTV peptide; assay: fluorescence polarisation

B1: His‐14‐3‐3γ (natural protein, UniProt P61981 1-247, looked up)
chain: MVDREQLVQKARLAEQAERYDDMAAAMKNVTELNEPLSNEERNLLSVAYKNVVGARRSSWRVISSIEQKTSADGNEKKIEMVRAYREKIEKELEAVCQDVLSLLDNYLIKNCSETQYESKVFYLKMKGDYYRYLAEVATGEKRATVVESSEKAYSEAHEISKEHMQPTHPIRLGLALNYSVFYYEIQNAPEQACHLAKTAFDDAIAELDTLNEDSYKDSTLIMQLLRDNLTLWTSDQQDDDGGEGNN
stoichiometry N (cross-linking): 2

pEC50 with fragment 2 (1 mM) (FAM‐ERα‐pTV peptide [1]): 5.92
pEC50 with FC-A (100 μM) (FAM‐ERα‐pTV peptide [2]): 6.16
pEC50 (FAM‐ERα‐pTV peptide [3]): 5.13
B2: recombinant N‐terminally GST‐tagged 14‐3‐3η (natural protein)
chain: MGDREQLLQRARLAEQAERYDDMASAMKAVTELNEPLSNEDRNLLSVAYKNVVGARRSSWRVISSIEQKTMADGNEKKLEKVKAYREKIEKELETVCNDVLSLLDKFLIKNCNDFQYESKVFYLKMKGDYYRYLAEVASGEKKNSVVEASEAAYKEAFEISKEQMQPTHPIRLGLALNFSVFYYEIQNAPEQACLLAKQAFDDAIAELDTLNEDSYKDSTLIMQLLRDNLTLWT
